Test results published in article doi:10.1101/2025.07.16.665076, “GPLD1 is as a scavenger carrier mediating lysosomal degradation of extracellular aberrant proteins” (bioRxiv, 2025).

T1: GPLD1-mCherry-sfGFP-His (GPLD1-RG) (human, UniProt P80108 24-840)
T1 construct: signal peptide in the construct; glycosylphosphatidylinositol-specific phospholipase D1 (GPLD1), human, full length, amplified from HepG2 cDNA; The fusion is said to be 160 kDa; also called GPLD1-RFP-GFP; GPLD1-RG-His; not shown: mCherry, C-terminal, kept; sfGFP, C-terminal, kept; His, C-terminal, kept
T1 sequence (looked up): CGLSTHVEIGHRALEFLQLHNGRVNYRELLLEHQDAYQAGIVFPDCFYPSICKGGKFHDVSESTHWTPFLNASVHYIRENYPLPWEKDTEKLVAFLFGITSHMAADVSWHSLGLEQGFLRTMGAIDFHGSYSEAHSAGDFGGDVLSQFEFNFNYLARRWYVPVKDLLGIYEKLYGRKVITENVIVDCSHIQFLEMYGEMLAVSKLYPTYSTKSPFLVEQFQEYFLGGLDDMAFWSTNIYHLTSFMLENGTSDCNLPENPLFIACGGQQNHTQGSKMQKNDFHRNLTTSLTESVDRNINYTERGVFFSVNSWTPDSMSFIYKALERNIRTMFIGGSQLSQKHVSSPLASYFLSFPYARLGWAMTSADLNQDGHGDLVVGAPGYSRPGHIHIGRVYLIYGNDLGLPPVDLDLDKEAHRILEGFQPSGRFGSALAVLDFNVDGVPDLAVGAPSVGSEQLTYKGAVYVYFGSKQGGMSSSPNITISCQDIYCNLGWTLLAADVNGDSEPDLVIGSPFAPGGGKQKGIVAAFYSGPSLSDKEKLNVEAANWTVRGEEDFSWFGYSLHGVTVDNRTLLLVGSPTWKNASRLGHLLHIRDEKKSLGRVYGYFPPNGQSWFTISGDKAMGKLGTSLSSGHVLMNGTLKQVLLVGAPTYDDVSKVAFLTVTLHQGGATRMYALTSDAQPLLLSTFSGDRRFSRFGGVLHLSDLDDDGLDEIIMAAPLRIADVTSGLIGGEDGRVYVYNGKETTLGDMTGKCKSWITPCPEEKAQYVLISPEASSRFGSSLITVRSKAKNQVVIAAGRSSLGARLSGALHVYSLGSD


Molecular target: T1, GPLD1-mCherry-sfGFP-His (GPLD1-RG)
Test: co-IP; purified RG-tagged protein (GPLD1-RG 40 nM) and ALFA-tagged substrate (His-ALFA-SAA1 500 nM) in PBS, 37°C with shaking for 2 h, aggregates spun out; ALFA nanobody beads at 4°C for 2 h, four washes with PBS; immunoblot
Settings: both partners purified

| Binder | binding result |
| --- | --- |
| His-ALFA-SAA1-N terminus (SAA1-N) (domain or fragment, human, UniProt P0DJI8 19-94, looked up, serum amyloid A1 (SAA1), human, amino acids 19-94: the N-terminal 76 residues, core amyloidogenic fragment; Prepared in 8 M urea-denatured form for all experiments; it aggregates on incubation in PBS; also called His-ALFA-tagged SAA1-N; source: E. coli BL21(DE3) pLysS, purified from inclusion bodies (Co-NTA, 8 M urea), stored in urea; not shown: His, N-terminal, kept; ALFA, N-terminal, kept) RSFFSFLGEAFDGARDMWRAYSDMREANYIGSDKYFHARGNYDAAKRGPGGAWAAEVITDARENIQRFFGHGAEDS | binds |
| His-ALFA-SAA1-Full length (SAA1-F) (natural protein, human, UniProt P0DJI8 19-122, looked up, serum amyloid A1 (SAA1), human, amino acids 19-122; Used in native form in the immunoprecipitation; the purification of the native form is not described; also called native ALFA-SAA1-F (full-length); source: E. coli BL21(DE3) pLysS, recombinant; not shown: His, N-terminal, kept; ALFA, N-terminal, kept) RSFFSFLGEAFDGARDMWRAYSDMREANYIGSDKYFHARGNYDAAKRGPGGAWAAEVITDARENIQRFFGHGAEDSLADQAANEWGRSGKDPNHFRPAGLPEKY | binds |
